Source: paper PMC10320583 (Journal of Structural Biology: X, 2023)

T1: E. coli LptAm-GSGGSGSG-AviTag, biotinylated (E. coli, UniProt P0ADV1 28-158, biotin on the AviTag (BirA biotin-protein ligase))
T1 sequence (looked up): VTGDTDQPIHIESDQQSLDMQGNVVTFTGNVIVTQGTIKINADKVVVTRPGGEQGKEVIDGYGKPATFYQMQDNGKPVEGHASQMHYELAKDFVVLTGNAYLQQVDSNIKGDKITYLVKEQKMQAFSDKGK


Experiments:
[1] = molecular target: E. coli LptAm-GSGGSGSG-AviTag, biotinylated (E. coli) (UniProt P0ADV1)
[2] = molecular target: T1, E. coli LptAm-GSGGSGSG-AviTag, …; test: BLI
crystal structure = molecular target: the molecule itself; test: crystal structure

fold improvement of binding over P. maculiventris thanatin [2] | Molecule | further results
– | Chinavia ubica thanatin (peptide) | MIC against E. coli ATCC 25922 [1]: 1.4 µg/mL
– | Murgantia histrionica thanatin (peptide) | MIC against E. coli ATCC 25922 [1]: 1.1 µg/mL
~3 fold | GSKKPVPIIYCNRRTGKCQRI (peptide, UniProt P55788 1-21, looked up) [P. maculiventris thanatin M21I] | –
~3 fold | GSKKPVPIIYCNRRTGKCRRM (peptide, UniProt P55788 1-21, looked up) [P. maculiventris thanatin Q19R] | –
~3 fold | GSKKPVPIIACNRRTGKCQRI (peptide, UniProt P55788 1-21, looked up) [P. maculiventris thanatin Y10A/M21I] | –
~3 fold | GSKKPVPIIACNRRTGKCQRM (peptide, UniProt P55788 1-21, looked up) [P. maculiventris thanatin Y10A] | –
– | E. coli LptAm (truncated monomeric LptA) (domain or fragment, UniProt P0ADV1 28-158, looked up) VTGDTDQPIHIESDQQSLDMQGNVVTFTGNVIVTQGTIKINADKVVVTRPGGEQGKEVIDGYGKPATFYQMQDNGKPVEGHASQMHYELAKDFVVLTGNAYLQQVDSNIKGDKITYLVKEQKMQAFSDKGK | stoichiometry N (crystal structure): 2
